Results taken from PMC3058308 (Nature, 2011).

B1: Nanobody-80 (VHH)
VHH: QVQLQESGGGLVQAGGSLRLSCAASGSIFSINTMGWYRQAPGKQRELVAAIHSGGSTNYANSVKGRFTISRDNAANTVYLQMNSLKPEDTAVYYCNVKDYGAVLYEYDYWGQGTQVTVSS

Legend:
[1] = target: β2AR-T4L; type: binding, human
[2] = target: β2 adrenergic receptor truncated at position 365, reconstituted in HDL particles (Homo sapiens (Human)., UniProt P07550); assay: radioligand binding
[3] = target: mBB-β2AR/HDL (Homo sapiens, UniProt P07550); assay: Bimane fluorescence spectroscopy on mBB-β2AR reconstituted in HDL particles; type: biochemical

Molecule | Ki ([1]; read-out: Ki in the presence of Nb80, β2AR-T4L/HDL, Nb80 1 μM, 0.6 nM [3H]-DHA) | increase of affinity in the presence of Nb80 ([1]; β2AR-T4L/HDL with Nb80 versus without) | binding result [2] | effect on bimane fluorescence of β2AR bound to inverse agonist ICI-118,551 ([3]; 300 nM Nb80, 1 μM ICI) | effect on bimane fluorescence in the presence of isoproterenol ([3]; 300 nM Nb80, 10 μM isoproterenol)
isoproterenol | 0.56 nM | 60 fold | – | – | –
B1 | – | – | binds | not observed | increased
